Measurements published in US20070004636.

T1: human hepatocyte nuclear factor 4α (HNF-4α), His and Xpress-tagged at the N-terminus
T1 chain: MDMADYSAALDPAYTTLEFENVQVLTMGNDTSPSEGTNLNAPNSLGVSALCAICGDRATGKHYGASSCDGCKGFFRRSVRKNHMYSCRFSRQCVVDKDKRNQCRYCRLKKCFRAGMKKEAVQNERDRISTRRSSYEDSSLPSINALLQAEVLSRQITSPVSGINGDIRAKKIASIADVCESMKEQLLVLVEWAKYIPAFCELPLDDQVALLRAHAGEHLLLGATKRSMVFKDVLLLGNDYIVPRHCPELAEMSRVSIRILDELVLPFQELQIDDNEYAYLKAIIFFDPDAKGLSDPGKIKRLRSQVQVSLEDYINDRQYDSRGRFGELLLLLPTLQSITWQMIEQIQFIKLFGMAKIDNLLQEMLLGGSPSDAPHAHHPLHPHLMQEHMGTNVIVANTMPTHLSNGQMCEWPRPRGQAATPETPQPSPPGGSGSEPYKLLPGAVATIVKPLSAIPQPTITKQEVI

T2: human hepatocyte nuclear factor 1α (HNF-1α), His and Xpress-tagged at the N-terminus (not fully specified)
T2 chain: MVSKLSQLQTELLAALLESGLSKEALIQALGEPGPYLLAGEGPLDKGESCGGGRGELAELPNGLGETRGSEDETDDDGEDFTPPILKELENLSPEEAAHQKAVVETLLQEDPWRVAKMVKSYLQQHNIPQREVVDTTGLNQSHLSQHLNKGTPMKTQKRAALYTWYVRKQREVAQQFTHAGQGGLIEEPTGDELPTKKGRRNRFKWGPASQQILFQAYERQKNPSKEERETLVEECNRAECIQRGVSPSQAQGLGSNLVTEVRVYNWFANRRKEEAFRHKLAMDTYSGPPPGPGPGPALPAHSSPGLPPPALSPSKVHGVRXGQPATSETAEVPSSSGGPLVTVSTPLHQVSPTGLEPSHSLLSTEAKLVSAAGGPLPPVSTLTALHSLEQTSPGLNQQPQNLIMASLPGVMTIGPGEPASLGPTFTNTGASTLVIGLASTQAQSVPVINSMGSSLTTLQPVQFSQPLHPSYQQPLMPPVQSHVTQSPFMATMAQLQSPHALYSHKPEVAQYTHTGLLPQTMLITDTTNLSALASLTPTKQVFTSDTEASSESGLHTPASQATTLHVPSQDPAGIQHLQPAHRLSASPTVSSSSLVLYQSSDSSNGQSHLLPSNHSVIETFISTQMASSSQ


Experiments:
[1] = target: T1, human hepatocyte nuclear factor 4α …
[2] = target: T2, human hepatocyte nuclear factor 1α …
[3] = target: human insulin promoter factor 1 (IPF-1), His and Xpress-tagged at the N-terminus
Chain of human insulin promoter factor 1 (IPF-1), His and Xpress-tagged at the N-terminus (chain, as listed by the source): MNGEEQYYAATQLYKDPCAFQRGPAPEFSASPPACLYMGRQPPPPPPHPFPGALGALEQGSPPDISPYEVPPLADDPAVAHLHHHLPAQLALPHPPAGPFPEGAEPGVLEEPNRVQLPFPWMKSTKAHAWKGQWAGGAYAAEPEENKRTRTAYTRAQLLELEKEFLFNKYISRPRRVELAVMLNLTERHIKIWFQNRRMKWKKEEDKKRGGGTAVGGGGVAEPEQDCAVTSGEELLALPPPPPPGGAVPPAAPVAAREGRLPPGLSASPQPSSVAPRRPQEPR

Row | Protein | in vitro protein degradation test, Western blotting with anti-HNF-4α antibody [1] | in vitro protein degradation test, Western blotting with anti-Omni/M21 and anti-HNF-1α antibody [2] | in vitro protein degradation test, Western blotting with anti-Xpress and anti-IPF-1 antibody [3]
1 | human µ-calpain extracted from human erythrocytes (Calpain 1, human erythrocytes; Calbiochem, Inc.) (protein) SEEIITPVYCTGVSAQVQKQRARELGLGRHENAIKYLGQDYEQLRVRCLQSGTLFRDEAFPPVPQSLGYKDLGPNSSKTYGIKWKRPTELLSNPQFIVDGATRTDICQGALGDCWLLAAIASLTLNDTLLHRVVPHGQSFQNGYAGIFHFQLWQFGEWVDVVVDDLLPIKDGKLVFVHSAEGNEFWSALLEKAYAKVNGSYEALSGGSTSEGFEDFTGGVTEWYELRKAPSDLYQIILKALERGSLLGCSIDISSVLDMEAITFKKLVKGHAYSVTGAKQVNYRGQVVSLIRMRNPWGEVEWTGAWSDSSSEWNNVDPYERDQLRVKMEDGEFWMSFRDFMREFTRLEICNLTPDALKSRTIRKWNTTLYEGTWRRGSTAGGCRNYPATFWVNPQFKIRLDETDDPDDYGDRESGCSFVLALMQKHRRRERRFGRDMETIGFAVYEVPPELVGQPAVHLKRDFFLANASRARSEQFINLREVSTRFRLPPGEYVVVPSTFEPNKEGDFVLRFFSEKSAGTVELDDQIQANLPDEQVLSEEEIDENFKALFRQLAGEDMEISVKELRTILNRIISKHKDLRTKGFSLESCRSMVNLMDRDGNGKLGLVEFNILWNRIRNYLSIFRKFDLDKSGSMSAYEMRMAIESAGFKLNKKLYELIITRYSEPDLAVDFDNFVCCLVRLETMFRFFKTLDTDLDGVVTFDLFKWLQLTMFA | the degradation of HNF-4α by human µ-calpain was observed | the in vitro degradation of HNF-1α by each of human µ-calpain, rabbit m-calpain and rat m-calpain was observed | the in vitro degradation of IPF-1 by each of human µ-calpain, rabbit m-calpain and rat m-calpain was observed
2 | rat m-calpain (Calpain 2, rat recombinant, E. coli, Calbiochem, Inc.) (protein) MAGIAMKLAKDREAAEGLGSHERAIKYLNQDYETLRNECLEAGALFQDPSFPALPSSLGFKELGPYSSKTRGIEWKRPTEICADPQFIIGGATRTDICQGALGDCWLLAAIASLTLNEEILARVVPLDQSFQENYAGIFHFQFWQYGEWVEVVVDDRLPTKDGELLFVHSAEGSEFWSALLEKAYAKINGCYEALSGGATTEGFEDFTGGIAEWYELRKPPPNLFKIIQKALEKGSLLGCSIDITSAADSEAVTYQKLVKGHAYSVTGAEEVESSGSLQKLIRIRNPWGQVEWTGKWNDNCPSWNTVDPEVRANLTERQEDGEFWMSFSDFLRHYSRLEICNLTPDTLTCDSYKKWKLTKMDGNWRRGSTAGGCRNYPNTFWMNPQYLIKLEEEDEDDEDGERGCTFLVGLIQKHRRRQRKMGEDMHTIGFGIYEVPEELTGQTNIHLSKNFFLTTRARERSDTFINLREVLNRFKLPPGEYVLVPSTFEPHKNGDFCIRVFSEKKADYQTVDDEIEANIEEIEANEEDIGDGFRRLFAQLAGEDAEISAFELQTILRRVLAKREDIKSDGFSIETCKIMVDMLDEDGSGKLGLKEFYILWTKIQKYQKIYREIDVDRSGTMNSYEMRKALEEAGFKLPCQLHQVIVARFADDELIIDFDNFVRCLVRLEILFKIFKQLDPENTGTIQLDLISWLSFSVL | – | the in vitro degradation of HNF-1α by each of human µ-calpain, rabbit m-calpain and rat m-calpain was observed | the in vitro degradation of IPF-1 by each of human µ-calpain, rabbit m-calpain and rat m-calpain was observed
